Test results from the nanobody polyreactivity screen of Harvey et al. (2022).

Test: yeast display, Sf9 membrane polyspecificity reagent, FACS + sequencing; frameworks hold sequencing errors
Method in brief: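 A synthetic nanobody library was expressed on Saccharomyces cerevisiae BJ5465 by galactose induction for 36–48 hours. The library was stained for 1 hour at 4 °C with 10% biotinylated, detergent-solubilized Sf9 membrane reagent and enriched with streptavidin microbeads before FACS. Low and high (top ~1%) gates were set on anti-HA fluorescence for expression and streptavidin fluorescence for reagent binding, and each polyreactivity label reflects the gate of origin.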

Row | Sequence | polyreactivity (PSR sort gate)
1 | QVQLLESGGGLVQAGGSLRLSCVASGGILSSNAMGWYRQAPGKERELVAAISSGGSTNYADSVKGRFTISRDNAKNTVYLQMNSLKPDDTAVYYCAADSKIGSFDSWGQGTQVNVSS | low polyreactivity
2 | QVQLVESGRGLVQAGVSLRLSCAASGSIFDPNAMGWYRQAPGKERELVAAITSGGGSTYYADSVKGRFTISRDNAKNTVYLQMNSLKPEDTAVYYCNKVFVLQYKFVAWFDYWGQGTQVTVSS | low polyreactivity
3 | QVQLVESGGGLVQAGGSLRLSCAASGRIFTAYHMGWYRQAPGKESELVAAITRSSGSTYYADSVKGRFTISRDNAKNTVYLQMIRLKPEVTAVYYCATDGEFWGYDSWGQGTQVTVSS | low polyreactivity
4 | QVQLVESGGGLVQAGGSLRLSCAASGLIFTPYAMGWYRQAPGKERELVAAINYGGSRTYYADSVKGRFTISRDNAKNTVYLQMNSLKPEDTAVYYCAARGFTLSYVDMYYWGLGTQVTVSS | high polyreactivity
5 | QVQLVESGGGLVQAGGSLRLSCAASGSTLAVYAMGWYRQAPGKEREFVAAISWSGVSTYYADSVKGRFTISRDNAKNTVYLQMNSLKPEDTAVYYCAAKRVRALYGGSEGGYWGQGTQVTVSS | low polyreactivity
6 | QVQLVESGGGLVQAGGSLRLSCAASGSTFEYYAMGWYRQAPGKERELVATISIDGRTNYADSVKGRFTISRDNAKNTVYLQMNSLKPEDTAVYYCAADTNWSPGYIMYYRSDYWGQGTQVTVSS | low polyreactivity
7 | QVQLVESGGGLVQAGGSLRLNCAASGITIRRYAMGCYRQAPGNERELVAAITTGGGGTYYADSVKGRFTISRDNAMNTVYLQMNSLKPEDTAVYYCAATYWRTYPSYYWGQGTQVTVSS | high polyreactivity
8 | QVQLVESGGGLVQAGGSLRLSCAASGRTFVYYAMGWYRQAPGKERELVAAISTGGSTNYADSVKGRFTISRDNAKNTVYLQMNSLKPEDTAVYYCAAQYYISISKYDYWGQGTQVTVSS | low polyreactivity
9 | QVQLVESGGGLVHAGGSLRLSCAASGSIFAYYAMGWYRQAPGKERELVARITYSTDGTYYADSVKGRFTISRDNAKNTVYLQMNSLKPEDTAVYFCAVDTWWGFKRYKFDYWGQGTQVTVSS | low polyreactivity
10 | QVQLVESGGGLVQAGGSLRLSCAASGRIFWNYAMGWYREAPGKERELVASINWSGGSTYSADSVKGRFTISRDNAKNTVYLQMNSLKPEDTAVYYCNQDGRVYLDHDYWGQGTQVTVSS | low polyreactivity
11 | QVQLVESGGGLVQAGGSLRLSCAASGRIFGRNTMGWYRKAPGKERELVASIRSGGRTYYADSVKGRFTISRDNAKNTVYLEMNSLKPEDTAVYYCAADNRKSSSSGYDYWGQGTQVTVSS | low polyreactivity
12 | QVQLVESGGGLVQAGGSHRLSCAASGLTFFPYAMGWYRQAPGKERELVAAITTSDGTTYYADSVKGRFTISRDNAKNTVYLQMNSLKPEDTAVYYCAAVYSPRSVWWYDYWGQGTQVTVSS | low polyreactivity
13 | QVQLVESGGGLVQAGGSLRLSCAASGLIFSSYAMGWYRQAPGKEREFVAAINYNGGRTYYADSVKGRFTISRDNAKNTVYLQMNSLKPEDTAVYYCDGRYGSGGDYWGQGTQVTVSS | low polyreactivity
14 | QVQLVESGGGIVQAGGSLRLSCAASGFTFKYYARGWYRQAPGKERELVAAIRGSGAGTYYADSVKGRFTISRDNAKNTGYLQMNSLKPEDTAVYYCNKRWTYKWDDYWGQGTQVTVSS | high polyreactivity
15 | QVQLVESGGGLVQAGGSLRLSCAASGGIFGKYAMGWYRQAPGKERELVAAITSSGGSTFYADSVKGRFTNSRDNAKNTVYLQMNSLKPEDTAVYYCAARFSSYVRRYYYWGQGTQVTVSS | high polyreactivity
16 | QVQLVESGGGLVQAGGSLRLSCAASGFTFRRNAMGWYRQAPGKERELVAAITYNGGTTYYADSVKGRFTISRDNAKNTVYLLMNSLKPEDTAVYYCNAPYGRQGYDYWGQGTQVTVSS | low polyreactivity
17 | QVHLHESGGGLVQAGGSLRLSCAASGTISYAGPMGWYRQAPGKEREFVAGIGVGSNTNYADSVKGRYTIIRDNAKNTLYLQKNSLKTEDTAVYYCAVAGYAPLGRPYWGQGTQVTVSS | low polyreactivity
18 | QVQLVESGGGLVQAGGSLRLSCAASGSIFFEYAMGWYRQAAGKERELVAAIDVGGGGTDYADSVKGRFTISRDNAKNTVYLQMNSLKPEDTAVYYCAAQDYYYFGIGASYDYWGQGTQVTVSS | low polyreactivity
19 | QVQLVESGGGLVQAGGSLRLSCAASGIIFDGYAMGWYRQAPGKEREFVAVISSSGGTTYYADSVKGRFTISRDNAKNTVYLQMNSLKPEDTAVYYCATLRYSPGWYTRDDYWGQGTQVTVSS | low polyreactivity
20 | QVQVVESGGGLVQAGGSLRLSCAASGSIFGANTMGWYRPAPGKERELVAAISSGGNTYYADSVKGRFTISRDNAKNTVYLQMNSLKPEDTAVYYCNAQTRYLYQYGYLGGTGYNYWGQGTQVTVSS | low polyreactivity
21 | QVQLVESGGGLVQAGGSLRLSCAASGRTFGLYAMGWYRQAPGKERELVAAIDQSTGSTYYADSVKGRFTISRDNSKNTVYLQMNSLKQEDTAVYYCAAEEASTVRYYWYDYWGLGTQVTVSS | high polyreactivity
22 | QVQLVESGGGLVQAGGSLRLSCAASGIIFAYYAMGWYRQAPGKERELVAAISWRGGSTYYADSVKGRFTISRDYAKNTVYLQMNSLKPEDTAVYYCAAAYLKKPYDYWGQGTQVTVSS | high polyreactivity

Row | Sequence | polyreactivity (PSR sort gate)
23 | QVQLVESGGGLVQAGGSLRLSCAASGSTFYKYAMGWYRQAPGKERELVAVITDGGSTTYADSVKGRFTISRDNAKNTVYLQMNSLKPEDTAVYYCAADYYLRKTRFESWGQGTQVTVSS | low polyreactivity
24 | QVQLVESGGGLVQAGGSLRLSCAASGRIFNQYAMGWYRQAPGKERELVAAISRRGGSTYYADSVKGRFTISRDNAKNTVYLQMNSLKPEDTAVYYCAAVGGYASYFHLYYYWGQGSQVTVSS | high polyreactivity
25 | QVQLVESGGGLVQAGGSLRLSFAASGIIFVGYAMGWYRQAPGKEMELVAAISTSSRTYYADSVKGRFTISRDNAKNTVYLQMNIQKPEDTAVYYCNARGTRWYYRHEYWGQGTQVTVSS | high polyreactivity
26 | QVQLVESGGGLVQAGGSLRLSCAASGSTFNSYTMGWYRPAPGKERELVAAISWRGTSTYYADSVKGRFTISRDNAKNTVYLQMNSLKPEDTAVFYCAAAGRYRVLTGLVSSWKYWGQGTLVTVSS | high polyreactivity
27 | QVQLVESGGGLVQAGGSLRLSCAASGSIFPRYAMGWYRQAPGKERELVAAITGSGSSTYYADSVKGRFTISRDNAKNTVYLQMNSLKPEDTAVYYCAALYGPGREYDYWGQGTQVTVSS | low polyreactivity
28 | QVQLVESGGGLVQAGGSLRLSCASSGRNFGYDGMGWYRQAPGKERELVAAITYRGGSTYYADSVKGRFTISRDNAKNTVYLQMNSLKPEDTAVYYCAADGYSHYRYLYDYWGQGTQVTVSS | low polyreactivity
29 | QVQLVESGGGLVQAGGSLRLSCAASGTFTRNVMGWYRQAPGKERELVAAIDNGSSTNYADSVKGRFTISRDNAKNTVYLQINSQKPEDTAVYYCANERPRSAGSAASIEQQMDYWGQGTQVTVSS | low polyreactivity
30 | QVHLVESGGGLVQAGGSLRLSCAASGSIFSGNAMGWYRQAPGKERELVAAITSSGGNTYYADSVKGRFTISRDNAKNTVYLQMNSLKPADTAVYYCAADGVYWRWYLYTFWMDYWGQGTQVTVSS | low polyreactivity
31 | QVQLVESGGGLVQAGGSLRLSCAASGFTFVHYAMGWYRQAPGKETELVAAISSGGSTYYADSVKGRFTISRDNAKNTVYLQLNSLKAEDTAVYYCAALKYSRGVRYGYWGQVTQVTVSS | high polyreactivity
32 | QVQLVESGGGLVQAGGSLRLSCAASGSIFAVNAMGWYRQAPGKERELVAAIDWSDGITYYADSVKGRFTISRDNAKNTVYLQMNSLKPEDTAVYYCAADATAYGWYVEQFSFYDNDYWGQGTEVTVSS | high polyreactivity
33 | QVQLVESGGGLVQAGGSLRLSCAASGRIFGRYAMGWYRQEPGKERELVASISWSGDSTYYADSVKGRFTISRDNAKNTVYLQMNSLKPEDTAVYYCNADPFIRTWYNYGYWGQGTQVTVSS | low polyreactivity
34 | QVQLVESGGGLVQAGGSLRLSCAASGFTLDPYALGWYRQAPGKERELVAAIRLSGCSTYYADSVKGRFTISRDNAKNTVYLQMNSLKPEDTAVYYCAADGISHWLYRYDYWGQGTQVTVSS | low polyreactivity
35 | QVQLVESGGGLVQEGGSLRLSCAASGSTFHDNAMGWYRQAPGKERELVASITGSSGSTYYADSVKGRFTISRDNAKNTVYLQMNSLKPEDTAVYYCADEGSRWYYFFYGGGGYWGQGTQVTVSS | low polyreactivity
36 | QVQLVESGGGLVQAGGSLSISCAASGRNFGYYTMGWYRQAPGKERELGAAITSGGRTNYADSVKGRFTISRDNAKNTVYLQMNSLKPEDTAVYYCNARRDSTRRGTWYEYWGQGTQVTVSS | high polyreactivity
37 | QVQLVESGGGLVQAGGSLRLSCAASGITFYRYVMGWYRQAPGKERELVAAITSRGGSTSYADSVKGRFTISRDNAKNTVYLQMNSLKPEDTAVYNCAADLSGWGRDARGAYDYWGQGPQVTVSS | high polyreactivity
38 | QVQLVESGGGLVKAGGSLRLSCAASGRTFLRNAMGWYRQAPGKERELVATITRGGSTYYADSVKGRFTISRDNAKNTVYLQMNSLKPEDTAVYYCAKDITGCFRRPDYGYWGQGTQVTVSS | low polyreactivity
39 | QVQLVESGGGLVQAGGRLRLSCASSGGTLSRYAMGWYRQAPGKERELVAAINWIGGRTSYADSVKGRFTISRDNAKNTVYLQMKSLKPEDTAVYYCAAQYYYAPPWRKYDYWGQGTQVTVSS | high polyreactivity
40 | QVQLVESGGGLVQAGGSLRLSCAASGSIFRYNAMGWYRQAPGKERELVAAITWSGGSTYYADSVKGRFTISRDNAKNTVYLQMNSLKPEDTAVYYCAASPYPHYRRYTGGFYYWGQGTQVTVSS | high polyreactivity
41 | QVQLVESGGGLVQAGGSLRLSCATSGSTFNDYDMGWYRQAPGKERELVAAISSSVSTYYADSVKGRFTISRDNAKNTVYLQMNSLKQEDTAVYYCAADYTGVCRYDYWGQGTLVTVSS | low polyreactivity
42 | QVQLVESGGGLVQAGGSLRLSCASSGFTFRYYTMGLYRQAPGKERELVASITWRGGSTYYADSVKGRFTISRDNAKNTVYLQMNCLKPEDTAVYYCNAERPYQYYPGIYRWYYYWGQGTQVTVSS | low polyreactivity
43 | QVQLVESGGGLVQAGGSLRLSCAASGSIFGIYVMGWYRQAPGKERELVAGISTRGGSTYYADSVKGRFTISRDNAKNTVYLQMNSLKPEDTAVYYCAAVPASYRYPMYYWGQGTQVNVSS | low polyreactivity
